Laboratory results: the supplement of paper PMC6755084

Each sequence was assayed on F1*sub RNA substrate (template-directed ligation) (assay: fraction ligated after 30 min (ligated reads / total reads); higher = more ligase activity; sequences stand for … in GAGACCGCAACTGAAAAGTTGT…AGTTCTGCACGTAGAAGCAAAAGGC). Details: 42 °C.
Description: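 Chip-synthesised pool of F1* ligase ribozyme variants (all single and double substitutions, single, double and triple deletions in the catalytic core and GAA bulge, plus designed variants) was transcribed with T7 and reacted as a pool with excess substrate F1*sub for 30 min at 42 C in 50 mM EPPS pH 8.5, 25 mM MgCl2. Ligated and unligated bands were separated by PAGE, barcoded by RT and deep sequenced; fraction ligated = ligated reads / total reads per variant, relative activity = FL / FL of wild type (0.826). Sequences are the DNA template of the ribozyme.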

Sequence	fraction ligated
TACACTTGTCGTAAGACACTTTGATGGGTTG [3d726]	0.0988
TACACTTGTCGTAAGACACTTTGATGGGTTGA [2d63]	0.194
TACACTTGTCGTAAGACACTTTGATGGTTGA [3d724]	0.0498
TACACTTGTCGTAAGACACTTTGGAGGGTTA [3d732]	0.0323
TACACTTGTCGTAAGACACTTTGGAGGGTTG [3d733]	0.0821
TACACTTGTCGTAAGACACTTTGGAGGGTTGA [2d65]	0.182
TACACTTGTCGTAAGACACTTTGGAGGTTGA [3d731]	0
TACACTTGTCGTAAGACACTTTGGATGGGTT [3d736]	0.00884
TACACTTGTCGTAAGACACTTTGGATGGGTTA [2d67]	0.274
TACACTTGTCGTAAGACACTTTGGATGGGTTG [2d68]	0.758
TACACTTGTCGTAAGACACTTTGGATGGGTTGA [1d3]	0.748
TACACTTGTCGTAAGACACTTTGGATGGTTA [3d734]	0.405
TACACTTGTCGTAAGACACTTTGGATGGTTG [3d735]	0.507
TACACTTGTCGTAAGACACTTTGGATGGTTGA [2d66]	0.644
TACACTTGTCGTAAGACACTTTGGGGGTTGA [3d727]	0.0616
TACACTTGTCGTAAGACACTTTGGTGGGTTA [3d729]	0.00637
TACACTTGTCGTAAGACACTTTGGTGGGTTG [3d730]	0.035
TACACTTGTCGTAAGACACTTTGGTGGGTTGA [2d64]	0.153
TACACTTGTCGTAAGACACTTTGGTGGTTGA [3d728]	0.0111
TACACTTGTCGTAAGACACTTTGTGGGTTGA [3d722]	0.115
TACACTTGTCGTAAGACATTGGATGGGTTGA [3d707]	0.239
TACACTTGTCGTAAGACATTTGATGGGTTGA [3d708]	0.0186

Sequence	fraction ligated
TACACTTGTCGTAAGACATTTGGAGGGTTGA [3d710]	0.0254
TACACTTGTCGTAAGACATTTGGATGGGTTA [3d712]	0.0725
TACACTTGTCGTAAGACATTTGGATGGGTTG [3d713]	0.324
TACACTTGTCGTAAGACATTTGGATGGGTTGA [2d61]	0.472
TACACTTGTCGTAAGACATTTGGATGGTTGA [3d711]	0.113
TACACTTGTCGTAAGACATTTGGTGGGTTGA [3d709]	0.0505
TACACTTGTCGTAAGACCTTGGATGGGTTGA [3d700]	0.222
TACACTTGTCGTAAGACCTTTGATGGGTTGA [3d701]	0.0781
TACACTTGTCGTAAGACCTTTGGAGGGTTGA [3d703]	0.0299
TACACTTGTCGTAAGACCTTTGGATGGGTTA [3d705]	0.136
TACACTTGTCGTAAGACCTTTGGATGGGTTG [3d706]	0.659
TACACTTGTCGTAAGACCTTTGGATGGGTTGA [2d60]	0.625
TACACTTGTCGTAAGACCTTTGGATGGTTGA [3d704]	0.358
TACACTTGTCGTAAGACCTTTGGTGGGTTGA [3d702]	0.138
TACACTTGTCGTAAGACTTTGGATGGGTTGA [3d682]	0.409
TACACTTGTCGTAAGCACTTGGATGGGTTGA [3d685]	0.0451
TACACTTGTCGTAAGCACTTTGATGGGTTGA [3d686]	0.0278
TACACTTGTCGTAAGCACTTTGGAGGGTTGA [3d688]	0.0515
TACACTTGTCGTAAGCACTTTGGATGGGTTA [3d690]	0.0198
TACACTTGTCGTAAGCACTTTGGATGGGTTG [3d691]	0.151
TACACTTGTCGTAAGCACTTTGGATGGGTTGA [2d58]	0.183
TACACTTGTCGTAAGCACTTTGGATGGTTGA [3d689]	0.101

Sequence	fraction ligated
TACACTTGTCGTAAGCACTTTGGTGGGTTGA [3d687]	0.114
TACACTTGTCGTAAGCATTTGGATGGGTTGA [3d684]	0.453
TACACTTGTCGTAAGCCTTTGGATGGGTTGA [3d683]	0.0763
TACACTTGTCGTAGAACTTTGGATGGGTTGA [3d662]	0.145
TACACTTGTCGTAGACACTTGGATGGGTTGA [3d665]	0.101
TACACTTGTCGTAGACACTTTGATGGGTTGA [3d666]	0.0743
TACACTTGTCGTAGACACTTTGGAGGGTTGA [3d668]	0.146
TACACTTGTCGTAGACACTTTGGATGGGTTA [3d670]	0.0913
TACACTTGTCGTAGACACTTTGGATGGGTTG [3d671]	0.514
TACACTTGTCGTAGACACTTTGGATGGGTTGA [2d56]	0.617
TACACTTGTCGTAGACACTTTGGATGGTTGA [3d669]	0.524
TACACTTGTCGTAGACACTTTGGTGGGTTGA [3d667]	0.0835
TACACTTGTCGTAGACATTTGGATGGGTTGA [3d664]	0.464
TACACTTGTCGTAGACCTTTGGATGGGTTGA [3d663]	0.173
TACACTTGTCGTAGCACTTTGGATGGGTTGA [3d661]	0.0075
TACACTTGTCGTGACACTTTGGATGGGTTGA [3d659]	0.0318
TACACTTGTCTAAACACTTTGGATGGGTTGA [3d634]	0.177
TACACTTGTCTAAGAACTTTGGATGGGTTGA [3d636]	0.116
TACACTTGTCTAAGACACTTGGATGGGTTGA [3d639]	0.087
TACACTTGTCTAAGACACTTTGATGGGTTGA [3d640]	0.0986
TACACTTGTCTAAGACACTTTGGAGGGTTGA [3d642]	0.115
TACACTTGTCTAAGACACTTTGGATGGGTTA [3d644]	0.131

Sequence	fraction ligated
TACACTTGTCTAAGACACTTTGGATGGGTTG [3d645]	0.595
TACACTTGTCTAAGACACTTTGGATGGGTTGA [2d54]	0.609
TACACTTGTCTAAGACACTTTGGATGGTTGA [3d643]	0.449
TACACTTGTCTAAGACACTTTGGTGGGTTGA [3d641]	0.124
TACACTTGTCTAAGACATTTGGATGGGTTGA [3d638]	0.457
TACACTTGTCTAAGACCTTTGGATGGGTTGA [3d637]	0.0809
TACACTTGTCTAAGCACTTTGGATGGGTTGA [3d635]	0.142
TACACTTGTCTAGACACTTTGGATGGGTTGA [3d633]	0.195
TACACTTGTGAAGACACTTTGGATGGGTTGA [3d618]	0.345
TACACTTGTGTAAACACTTTGGATGGGTTGA [3d620]	0.0848
TACACTTGTGTAAGAACTTTGGATGGGTTGA [3d622]	0.00557
TACACTTGTGTAAGACACTTGGATGGGTTGA [3d625]	0.0347
TACACTTGTGTAAGACACTTTGATGGGTTGA [3d626]	0.0413
TACACTTGTGTAAGACACTTTGGAGGGTTGA [3d628]	0.0881
TACACTTGTGTAAGACACTTTGGATGGGTTA [3d630]	0.0333
TACACTTGTGTAAGACACTTTGGATGGGTTG [3d631]	0.145
TACACTTGTGTAAGACACTTTGGATGGGTTGA [2d53]	0.243
TACACTTGTGTAAGACACTTTGGATGGTTGA [3d629]	0.141
TACACTTGTGTAAGACACTTTGGTGGGTTGA [3d627]	0.134
TACACTTGTGTAAGACATTTGGATGGGTTGA [3d624]	0.392
TACACTTGTGTAAGACCTTTGGATGGGTTGA [3d623]	0.0441
TACACTTGTGTAAGCACTTTGGATGGGTTGA [3d621]	0.101

Sequence	fraction ligated
TACACTTGTGTAGACACTTTGGATGGGTTGA [3d619]	0.0703
TACACTTGTTAAGACACTTTGGATGGGTTGA [3d617]	0.244
TACACTTTCGAAGACACTTTGGATGGGTTGA [3d587]	0.0357
TACACTTTCGTAAACACTTTGGATGGGTTGA [3d589]	0.0248
TACACTTTCGTAAGAACTTTGGATGGGTTGA [3d591]	0.0829
TACACTTTCGTAAGACACTTGGATGGGTTGA [3d594]	0.0252
TACACTTTCGTAAGACACTTTGATGGGTTGA [3d595]	0.0271
TACACTTTCGTAAGACACTTTGGAGGGTTGA [3d597]	0.0439
TACACTTTCGTAAGACACTTTGGATGGGTTA [3d599]	0.00822
TACACTTTCGTAAGACACTTTGGATGGGTTG [3d600]	0.0259
TACACTTTCGTAAGACACTTTGGATGGGTTGA [2d51]	0.0483
TACACTTTCGTAAGACACTTTGGATGGTTGA [3d598]	0.0486
TACACTTTCGTAAGACACTTTGGTGGGTTGA [3d596]	0.0156
TACACTTTCGTAAGACATTTGGATGGGTTGA [3d593]	0.292
TACACTTTCGTAAGACCTTTGGATGGGTTGA [3d592]	0.0278
TACACTTTCGTAAGCACTTTGGATGGGTTGA [3d590]	0.0355
TACACTTTCGTAGACACTTTGGATGGGTTGA [3d588]	0.0222
TACACTTTCTAAGACACTTTGGATGGGTTGA [3d586]	0.0445
TACACTTTGTAAGACACTTTGGATGGGTTGA [3d585]	0.0938
TACATGTCGTAAGACACTTTGGATGGGTTGA [3d547]	0.16
TACATTGCGTAAGACACTTTGGATGGGTTGA [3d549]	0.0211
